Experimental data reported in patent US11130793B2, “GLP-1/GLP-2 dual agonists” (Zealand Pharma A/S, priority 2016, dated 2021).
Square brackets hold non-standard residues; d marks the D form. Aib = CC(C)(N)C(=O)O

T1: human GLP-2 receptor (hGLP2-R) (human, UniProt O95838)
T1 sequence: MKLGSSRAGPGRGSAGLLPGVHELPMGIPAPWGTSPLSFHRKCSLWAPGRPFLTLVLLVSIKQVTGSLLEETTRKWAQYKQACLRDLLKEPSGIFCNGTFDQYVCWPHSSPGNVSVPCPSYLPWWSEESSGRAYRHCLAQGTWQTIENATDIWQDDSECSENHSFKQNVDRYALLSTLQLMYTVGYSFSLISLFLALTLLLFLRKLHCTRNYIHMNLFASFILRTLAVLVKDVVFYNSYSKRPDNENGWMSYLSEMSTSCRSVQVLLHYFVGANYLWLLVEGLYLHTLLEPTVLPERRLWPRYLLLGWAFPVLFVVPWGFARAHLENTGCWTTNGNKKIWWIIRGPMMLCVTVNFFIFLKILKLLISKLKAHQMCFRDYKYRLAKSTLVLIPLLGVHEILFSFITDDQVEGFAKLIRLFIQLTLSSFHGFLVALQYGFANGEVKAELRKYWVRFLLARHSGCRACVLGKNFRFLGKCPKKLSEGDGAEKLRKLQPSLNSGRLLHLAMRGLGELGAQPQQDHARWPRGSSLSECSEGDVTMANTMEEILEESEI


Experiments:
[1] = molecular target: human glucagon-like peptide 1 receptor (GLP-1R) (human, UniProt P43220); assay: cell-based or functional assay
[2] = molecular target: T1, human GLP-2 receptor (hGLP2-R); assay: cell-based or functional assay

Row | Binder | EC50 GLP-1 (nM); cAMP AlphaScreen [1] | EC50 GLP-2 (nM); cAMP AlphaScreen [2]
1 | H-H[Aib]EGSFTSELATILDEQAARDFIAWLILHKITD-OH (SMILES CC[C@H](C)[C@H](NC(=O)[C@H](Cc1ccccc1)NC(=O)[C@H](CC(=O)O)NC(=O)[C@H](CCCNC(=N)N)NC(=O)[C@H](C)NC(=O)[C@H](C)NC(=O)[C@H](CCC(N)=O)NC(=O)[C@H](CCC(=O)O)NC(=O)[C@H](CC(=O)O)NC(=O)[C@H](CC(C)C)NC(=O)[C@@H](NC(=O)[C@@H](NC(=O)[C@H](C)NC(=O)[C@H](CC(C)C)NC(=O)[C@H](CCC(=O)O)NC(=O)[C@H](CO)NC(=O)[C@@H](NC(=O)[C@H](Cc1ccccc1)NC(=O)[C@H](CO)NC(=O)CNC(=O)[C@H](CCC(=O)O)NC(=O)C(C)(C)NC(=O)[C@@H](N)Cc1c[nH]cn1)[C@@H](C)O)[C@@H](C)O)[C@@H](C)CC)C(=O)N[C@@H](C)C(=O)N[C@@H](Cc1c[nH]c2ccccc12)C(=O)N[C@@H](CC(C)C)C(=O)N[C@H](C(=O)N[C@@H](CC(C)C)C(=O)N[C@@H](Cc1c[nH]cn1)C(=O)N[C@@H](CCCCN)C(=O)N[C@H](C(=O)N[C@H](C(=O)N[C@@H](CC(=O)O)C(=O)O)[C@@H](C)O)[C@@H](C)CC)[C@@H](C)CC) [Compound 8] | 0.021 nM | 0.084 nM
2 | H-H[Aib]EGTFTDELATILDEQAARDFIAWLIAHKITD-OH (SMILES CC[C@H](C)[C@H](NC(=O)[C@H](CC(C)C)NC(=O)[C@H](Cc1c[nH]c2ccccc12)NC(=O)[C@H](C)NC(=O)[C@@H](NC(=O)[C@H](Cc1ccccc1)NC(=O)[C@H](CC(=O)O)NC(=O)[C@H](CCCNC(=N)N)NC(=O)[C@H](C)NC(=O)[C@H](C)NC(=O)[C@H](CCC(N)=O)NC(=O)[C@H](CCC(=O)O)NC(=O)[C@H](CC(=O)O)NC(=O)[C@H](CC(C)C)NC(=O)[C@@H](NC(=O)[C@@H](NC(=O)[C@H](C)NC(=O)[C@H](CC(C)C)NC(=O)[C@H](CCC(=O)O)NC(=O)[C@H](CC(=O)O)NC(=O)[C@@H](NC(=O)[C@H](Cc1ccccc1)NC(=O)[C@@H](NC(=O)CNC(=O)[C@H](CCC(=O)O)NC(=O)C(C)(C)NC(=O)[C@@H](N)Cc1c[nH]cn1)[C@@H](C)O)[C@@H](C)O)[C@@H](C)O)[C@@H](C)CC)[C@@H](C)CC)C(=O)N[C@@H](C)C(=O)N[C@@H](Cc1c[nH]cn1)C(=O)N[C@@H](CCCCN)C(=O)N[C@H](C(=O)N[C@H](C(=O)N[C@@H](CC(=O)O)C(=O)O)[C@@H](C)O)[C@@H](C)CC) [Compound 9] | 0.007 nM | 0.041 nM
3 | H-H[Aib]EGTFTSELSTILDEQAARDFIAWLIAHKITD-OH (SMILES CC[C@H](C)[C@H](NC(=O)[C@H](CC(C)C)NC(=O)[C@H](Cc1c[nH]c2ccccc12)NC(=O)[C@H](C)NC(=O)[C@@H](NC(=O)[C@H](Cc1ccccc1)NC(=O)[C@H](CC(=O)O)NC(=O)[C@H](CCCNC(=N)N)NC(=O)[C@H](C)NC(=O)[C@H](C)NC(=O)[C@H](CCC(N)=O)NC(=O)[C@H](CCC(=O)O)NC(=O)[C@H](CC(=O)O)NC(=O)[C@H](CC(C)C)NC(=O)[C@@H](NC(=O)[C@@H](NC(=O)[C@H](CO)NC(=O)[C@H](CC(C)C)NC(=O)[C@H](CCC(=O)O)NC(=O)[C@H](CO)NC(=O)[C@@H](NC(=O)[C@H](Cc1ccccc1)NC(=O)[C@@H](NC(=O)CNC(=O)[C@H](CCC(=O)O)NC(=O)C(C)(C)NC(=O)[C@@H](N)Cc1c[nH]cn1)[C@@H](C)O)[C@@H](C)O)[C@@H](C)O)[C@@H](C)CC)[C@@H](C)CC)C(=O)N[C@@H](C)C(=O)N[C@@H](Cc1c[nH]cn1)C(=O)N[C@@H](CCCCN)C(=O)N[C@H](C(=O)N[C@H](C(=O)N[C@@H](CC(=O)O)C(=O)O)[C@@H](C)O)[C@@H](C)CC) [Compound 10] | 0.005 nM | 0.05 nM
4 | H-H[Aib]EGTFTSELATILDGKAARDFIAWLIAHKITD-OH (SMILES CC[C@H](C)[C@H](NC(=O)[C@H](CC(C)C)NC(=O)[C@H](Cc1c[nH]c2ccccc12)NC(=O)[C@H](C)NC(=O)[C@@H](NC(=O)[C@H](Cc1ccccc1)NC(=O)[C@H](CC(=O)O)NC(=O)[C@H](CCCNC(=N)N)NC(=O)[C@H](C)NC(=O)[C@H](C)NC(=O)[C@H](CCCCN)NC(=O)CNC(=O)[C@H](CC(=O)O)NC(=O)[C@H](CC(C)C)NC(=O)[C@@H](NC(=O)[C@@H](NC(=O)[C@H](C)NC(=O)[C@H](CC(C)C)NC(=O)[C@H](CCC(=O)O)NC(=O)[C@H](CO)NC(=O)[C@@H](NC(=O)[C@H](Cc1ccccc1)NC(=O)[C@@H](NC(=O)CNC(=O)[C@H](CCC(=O)O)NC(=O)C(C)(C)NC(=O)[C@@H](N)Cc1c[nH]cn1)[C@@H](C)O)[C@@H](C)O)[C@@H](C)O)[C@@H](C)CC)[C@@H](C)CC)C(=O)N[C@@H](C)C(=O)N[C@@H](Cc1c[nH]cn1)C(=O)N[C@@H](CCCCN)C(=O)N[C@H](C(=O)N[C@H](C(=O)N[C@@H](CC(=O)O)C(=O)O)[C@@H](C)O)[C@@H](C)CC) [Compound 11] | 0.011 nM | 0.085 nM
5 | H-H[Aib]EGTFTSELATILDEQAARDFIAWLHAHKITD-OH (SMILES CC[C@H](C)[C@H](NC(=O)[C@H](Cc1ccccc1)NC(=O)[C@H](CC(=O)O)NC(=O)[C@H](CCCNC(=N)N)NC(=O)[C@H](C)NC(=O)[C@H](C)NC(=O)[C@H](CCC(N)=O)NC(=O)[C@H](CCC(=O)O)NC(=O)[C@H](CC(=O)O)NC(=O)[C@H](CC(C)C)NC(=O)[C@@H](NC(=O)[C@@H](NC(=O)[C@H](C)NC(=O)[C@H](CC(C)C)NC(=O)[C@H](CCC(=O)O)NC(=O)[C@H](CO)NC(=O)[C@@H](NC(=O)[C@H](Cc1ccccc1)NC(=O)[C@@H](NC(=O)CNC(=O)[C@H](CCC(=O)O)NC(=O)C(C)(C)NC(=O)[C@@H](N)Cc1c[nH]cn1)[C@@H](C)O)[C@@H](C)O)[C@@H](C)O)[C@@H](C)CC)C(=O)N[C@@H](C)C(=O)N[C@@H](Cc1c[nH]c2ccccc12)C(=O)N[C@@H](CC(C)C)C(=O)N[C@@H](Cc1c[nH]cn1)C(=O)N[C@@H](C)C(=O)N[C@@H](Cc1c[nH]cn1)C(=O)N[C@@H](CCCCN)C(=O)N[C@H](C(=O)N[C@H](C(=O)N[C@@H](CC(=O)O)C(=O)O)[C@@H](C)O)[C@@H](C)CC) [Compound 12] | 0.055 nM | 0.076 nM
6 | H-H[Aib]EGTFTSELATILDEQAARDFIAWLQAHKITD-OH (SMILES CC[C@H](C)[C@H](NC(=O)[C@H](Cc1ccccc1)NC(=O)[C@H](CC(=O)O)NC(=O)[C@H](CCCNC(=N)N)NC(=O)[C@H](C)NC(=O)[C@H](C)NC(=O)[C@H](CCC(N)=O)NC(=O)[C@H](CCC(=O)O)NC(=O)[C@H](CC(=O)O)NC(=O)[C@H](CC(C)C)NC(=O)[C@@H](NC(=O)[C@@H](NC(=O)[C@H](C)NC(=O)[C@H](CC(C)C)NC(=O)[C@H](CCC(=O)O)NC(=O)[C@H](CO)NC(=O)[C@@H](NC(=O)[C@H](Cc1ccccc1)NC(=O)[C@@H](NC(=O)CNC(=O)[C@H](CCC(=O)O)NC(=O)C(C)(C)NC(=O)[C@@H](N)Cc1c[nH]cn1)[C@@H](C)O)[C@@H](C)O)[C@@H](C)O)[C@@H](C)CC)C(=O)N[C@@H](C)C(=O)N[C@@H](Cc1c[nH]c2ccccc12)C(=O)N[C@@H](CC(C)C)C(=O)N[C@@H](CCC(N)=O)C(=O)N[C@@H](C)C(=O)N[C@@H](Cc1c[nH]cn1)C(=O)N[C@@H](CCCCN)C(=O)N[C@H](C(=O)N[C@H](C(=O)N[C@@H](CC(=O)O)C(=O)O)[C@@H](C)O)[C@@H](C)CC) [Compound 13] | 0.016 nM | 0.083 nM
7 | H-H[Aib]EGTFTSELATILDEQAARDFIAWLYAHKITD-OH (SMILES CC[C@H](C)[C@H](NC(=O)[C@H](Cc1ccccc1)NC(=O)[C@H](CC(=O)O)NC(=O)[C@H](CCCNC(=N)N)NC(=O)[C@H](C)NC(=O)[C@H](C)NC(=O)[C@H](CCC(N)=O)NC(=O)[C@H](CCC(=O)O)NC(=O)[C@H](CC(=O)O)NC(=O)[C@H](CC(C)C)NC(=O)[C@@H](NC(=O)[C@@H](NC(=O)[C@H](C)NC(=O)[C@H](CC(C)C)NC(=O)[C@H](CCC(=O)O)NC(=O)[C@H](CO)NC(=O)[C@@H](NC(=O)[C@H](Cc1ccccc1)NC(=O)[C@@H](NC(=O)CNC(=O)[C@H](CCC(=O)O)NC(=O)C(C)(C)NC(=O)[C@@H](N)Cc1c[nH]cn1)[C@@H](C)O)[C@@H](C)O)[C@@H](C)O)[C@@H](C)CC)C(=O)N[C@@H](C)C(=O)N[C@@H](Cc1c[nH]c2ccccc12)C(=O)N[C@@H](CC(C)C)C(=O)N[C@@H](Cc1ccc(O)cc1)C(=O)N[C@@H](C)C(=O)N[C@@H](Cc1c[nH]cn1)C(=O)N[C@@H](CCCCN)C(=O)N[C@H](C(=O)N[C@H](C(=O)N[C@@H](CC(=O)O)C(=O)O)[C@@H](C)O)[C@@H](C)CC) [Compound 14] | 0.021 nM | 0.049 nM
